No end group written: not given here. FI = 5(6)-carboxyfluorescein
What was measured:
Test in all cases: cell-based or functional assay
[1] = molecular target: WT^C-Trx-H6 (AceL-TerL Int^C fused to hexahistidine-tagged thioredoxin) (UniProt P0AA25 2-109 = thioredoxin)
MBP-M1^C-SENP1-H6 = molecular target: T1, MBP-M1^C-SENP1-H6 (human, UniProt Q9P0U3 419-644)
T1 sequence (Q9P0U3 whole entry, looked up): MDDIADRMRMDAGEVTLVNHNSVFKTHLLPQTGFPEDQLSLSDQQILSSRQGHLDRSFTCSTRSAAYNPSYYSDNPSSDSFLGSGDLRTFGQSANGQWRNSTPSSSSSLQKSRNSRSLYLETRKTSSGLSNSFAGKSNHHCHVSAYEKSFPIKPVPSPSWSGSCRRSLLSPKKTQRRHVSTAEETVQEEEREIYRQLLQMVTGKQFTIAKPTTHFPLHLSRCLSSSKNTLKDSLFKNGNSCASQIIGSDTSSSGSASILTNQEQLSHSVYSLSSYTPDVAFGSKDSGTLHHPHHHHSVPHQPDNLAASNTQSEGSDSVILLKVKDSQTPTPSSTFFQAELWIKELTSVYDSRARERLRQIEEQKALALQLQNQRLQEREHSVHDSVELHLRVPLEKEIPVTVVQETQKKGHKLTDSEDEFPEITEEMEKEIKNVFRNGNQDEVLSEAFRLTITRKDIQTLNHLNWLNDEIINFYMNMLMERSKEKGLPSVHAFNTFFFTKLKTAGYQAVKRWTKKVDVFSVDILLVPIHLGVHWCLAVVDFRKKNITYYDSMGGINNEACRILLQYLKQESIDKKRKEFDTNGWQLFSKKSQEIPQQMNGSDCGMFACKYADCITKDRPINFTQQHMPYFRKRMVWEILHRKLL

MBP-M1^C-EGFP-H6 = molecular target: MBP-M1^C-EGFP-H6
MBP-M1^C-EGFP-H6, sequence (main, as listed by the source): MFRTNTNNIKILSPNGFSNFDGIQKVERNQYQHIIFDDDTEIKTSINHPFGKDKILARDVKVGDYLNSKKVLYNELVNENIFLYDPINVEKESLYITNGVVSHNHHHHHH

MBP-M1^C-mRFP-H6 = molecular target: MBP-M1^C-mRFP-H6
MBP-M1^C-mRFP-H6, sequence (main, as listed by the source): as above

MBP-M1^C-Gluc-H6 = MBP-M1^C-Gluc-H6 (Gaussia princeps)
MBP-M1^C-Gluc-H6 (Gaussia princeps), sequence (main, as listed by the source): as above

MBP-M1^C-Ubc9-H6 = MBP-M1^C-Ubc9-H6 (murine, UniProt P63280 1-158)
MBP-M1^C-Ubc9-H6, sequence (P63280 other isoform, or with tags, fused parts or gaps): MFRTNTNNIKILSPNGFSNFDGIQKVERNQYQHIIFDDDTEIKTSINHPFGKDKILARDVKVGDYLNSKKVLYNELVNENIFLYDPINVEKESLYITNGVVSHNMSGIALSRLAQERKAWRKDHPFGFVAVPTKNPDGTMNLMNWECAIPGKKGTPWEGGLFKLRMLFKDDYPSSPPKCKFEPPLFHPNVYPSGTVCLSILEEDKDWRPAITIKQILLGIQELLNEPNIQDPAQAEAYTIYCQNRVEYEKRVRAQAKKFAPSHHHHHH

WT^C-Trx-H6 (AceL-TerL Int^C fused to hexahistidine-tagged thioredoxin), sequence (P0AA25 other isoform, or with tags, fused parts or gaps): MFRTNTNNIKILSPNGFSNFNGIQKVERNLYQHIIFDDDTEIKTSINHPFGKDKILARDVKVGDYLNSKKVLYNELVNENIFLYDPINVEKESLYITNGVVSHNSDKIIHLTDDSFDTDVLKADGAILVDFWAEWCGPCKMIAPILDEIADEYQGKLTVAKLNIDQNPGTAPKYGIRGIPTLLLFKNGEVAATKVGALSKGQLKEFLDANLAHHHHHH

Q: With {FI}-KKEFECVYGDTMVETEDGKIKIEDLYKRLA [pepWT^N (FI-KKEFE-IntN), synthetic peptide with the Int^N of the AceL-TerL intein] as the binder, how does the “splicing rate at 37° C. against 8° C.” value [1] read?
A: ~50 fold slower

Q: And the “t½ of splicing at 8° C.” value [1]?
A: 7.2 min

Q: And the “yield of the N-terminally labelled splice product after 3 h at 8° C.” value (“yield” for short) (MBP-M1^C-SENP1-H6)?
A: ~80%

Q: What about the “yield” value (MBP-M1^C-EGFP-H6) of the same binder?
A: ~80%

Q: What about the “yield” value (MBP-M1^C-mRFP-H6) of the same binder?
A: ~80%

Q: And the “yield” value (MBP-M1^C-Gluc-H6)?
A: ~80%

Q: And the “yield” value (MBP-M1^C-Ubc9-H6)?
A: ~80%

Source: patent US20160319287A1 (WESTF LISCHE WILHELMS UNIVERSIT T M NSTER, published 2016)
